Test results reported in the supplement of paper PMC7877785.
± gives the uncertainty stated by the source.

Assay: self-splicing fitness, log relative to wild type (ln ratio); higher = more splicing; Tetrahymena group I intron in knt gene, E. coli kanamycin selection, DiMSum; sequences stand for … in CUCUCU…GGAGGGAAAAGUUAUCAGGCAUGCACCUGGUAGCUAGUCUUUAAACCAAUAGAUUGCAUCGGUUUAAAAGGCAAGACCGUCAAAUUGCGGGAAAGGGGUCAACAGCCGUUCAGUACCAAGUCUCAGGGGAAACUUUGAGAUGGCCUUGCAAAGGGUAUGGUAAUAAGCUGACGGACAUGGUCCUAACCACGCAGCCAAGUCCUAAGUCAACAGAUCUUCUGUUGAUAUGGAUGCAGUUCACAGACUAAAUGUCGGUCGGGGAAGAUGUAUUCUUCUCAUAAGAUAUAGUCGGACCUCUCCUUAAUGGGAGCUAGCGGAUGAAGUGAUGCAACACUGGAGCCGCUGGGAACUAAUUUGUAUGCGAAAGUAUAUUGAUUAGUUUUGGAGUACUCGUGGUCG
Summary of the method: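 Six replicate transformations of E. coli BL21(DE3) with a pET-22b(+) library were grown overnight at 37°C or 30°C. The library randomised all eight P1ex-region intron nucleotides, the intron lying in the knt kanamycin-resistance gene, and plates were LB agar with or without 25 μg/mL kanamycin plus 100 μg/mL carbenicillin, 50 μM IPTG and 0.2% rhamnose. Pooled colonies were amplicon-sequenced on an Illumina HiSeq 2500, and fitness is the DiMSum error-weighted combination of wild-type-normalised replicate fold changes, kanamycin versus none.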

Sequence | self-splicing fitness (ln) (37 °C) | self-splicing fitness (ln) (30 °C)
GUUUAGCAAUAUUACGAGCU | -0.552 ± 0.27 | –
CCAUAGCAAUAUUACGCGCU | -3.05 ± 0.4 | -3.87 ± 0.27
CUCUAGCAAUAUUACGUGUU | -2.39 ± 0.12 | -3.44 ± 0.15
AUUCAGCAAUAUUACGCUCG | 0.0381 ± 0.19 | -1.11 ± 0.16
AACUAGCAAUAUUACGCUCC | -0.732 ± 0.19 | -1.39 ± 0.15
CGGUAGCAAUAUUACGUCAC | -1.82 ± 0.48 | -2.59 ± 0.34
UUCUAGCAAUAUUACGGGUG | 0.281 ± 0.11 | -0.114 ± 0.078
AGCAAGCAAUAUUACGUUCG | -1.44 ± 0.09 | -2.66 ± 0.084
UUAAAGCAAUAUUACGGCGU | 0.33 ± 0.09 | -0.257 ± 0.068
ACAAAGCAAUAUUACGGCGC | 0.358 ± 0.12 | -0.996 ± 0.076
AGGCAGCAAUAUUACGUAAC | -0.934 ± 0.14 | -2.03 ± 0.12
AGGCAGCAAUAUUACGCAUU | -0.577 ± 0.1 | -2.24 ± 0.13
AAAGAGCAAUAUUACGAACG | -1.74 ± 0.13 | -3.87 ± 0.21
CACUAGCAAUAUUACGUCAG | 0.566 ± 0.071 | -0.817 ± 0.062
GAGUAGCAAUAUUACGCAUA | -1.54 ± 0.24 | -2.47 ± 0.25
UCGUAGCAAUAUUACGCUGA | -1.35 ± 0.15 | -2.45 ± 0.28
UUUUAGCAAUAUUACGAUGG | -1.22 ± 0.2 | -1.32 ± 0.19
GCGAAGCAAUAUUACGGAUC | -0.659 ± 0.094 | -0.303 ± 0.071
CCGAAGCAAUAUUACGGGAU | -2.47 ± 0.22 | -3.69 ± 0.26

Sequence | self-splicing fitness (ln) (37 °C) | self-splicing fitness (ln) (30 °C)
GUCUAGCAAUAUUACGCAAC | -0.643 ± 0.095 | -1.33 ± 0.087
GCUGAGCAAUAUUACGUUGA | -2.61 ± 0.22 | -2.57 ± 0.22
AUCUAGCAAUAUUACGUAGC | -1.84 ± 0.27 | -3.71 ± 0.35
CGCGAGCAAUAUUACGGCUU | -2.54 ± 0.26 | -3.01 ± 0.42
CGCGAGCAAUAUUACGACUG | 0.0174 ± 0.17 | 0.265 ± 0.17
GCGCAGCAAUAUUACGAGAG | -1.35 ± 0.1 | -3.03 ± 0.19
UGCCAGCAAUAUUACGUGCG | -1.13 ± 0.091 | -1.34 ± 0.077
CAUGAGCAAUAUUACGCUGG | -2.58 ± 0.18 | -3.36 ± 0.17
CCUUAGCAAUAUUACGAGAG | -1.42 ± 0.1 | -2.05 ± 0.11
GGUAAGCAAUAUUACGAAAA | -0.969 ± 0.34 | -2.86 ± 0.43
GCACAGCAAUAUUACGAAGA | -1.4 ± 0.18 | -1.41 ± 0.14
GUGAAGCAAUAUUACGAUCU | -0.0185 ± 0.12 | -1.26 ± 0.13
GACGAGCAAUAUUACGAGCA | -2.65 ± 0.3 | -3.31 ± 0.35
AGUCAGCAAUAUUACGGGAC | -2.16 ± 0.24 | -2.45 ± 0.18
UUCCAGCAAUAUUACGGUAU | -1.5 ± 0.12 | -2.13 ± 0.11
UUAAAGCAAUAUUACGAGGA | -0.545 ± 0.16 | -1.84 ± 0.13
AUGGAGCAAUAUUACGCUGA | -3.11 ± 0.35 | -3.48 ± 0.24
AUAUAGCAAUAUUACGUCUA | -0.495 ± 0.12 | -0.735 ± 0.12
